From patent US8449872B2, “Polymer conjugates of nesiritide peptides” (priority 2008, dated 2013)
Entries after “also recorded” stand apart in the source; their conditions may differ. Like-named read-outs stand apart in the source and are kept apart here.

Legend:
[1] = rat, in vivo, iv
Experimental: (§1) Thirty one (31) adult male Sprague-Dawley rats with indwelling jugular vein and carotid artery catheters (JVC/CAC) (Charles River Labs, Hollister, Calif.) were utilized for this study. […] All animals were food fasted overnight. Prior to dosing, the rats were weighed, the tails and cage cards were labeled for identification and the doses were calculated. Anesthesia was induced and maintained with 3.0-5.0% isoflurane. The JVC and CAC were externalized and flushed with HEP/saline (10 IU/mL HEP/mL saline). The predose sample was collected from the JVC and the catheters were plugged, and labeled to identify the jugular vein and carotid artery. When all of the animals had recovered from anesthesia and the predose samples were processed, the animals were dosed, intravenously (IV) via the JVC using a 1 mL syringe containing the appropriate test article and the dead volume of the catheter was flushed with 0.9% saline to ensure the animals received the correct dose.
(§2) Following a single IV dose, blood samples were collected from groups 1A, 2A, 3A and 4A, at 0 (pre-dose collected as described above), 0.03, 0.33, 2.0, 6.0, 12.0 and 72.0 hours and from Groups 1B, 2B, 3B and 4B at 0 (pre-dose collected as described above), 0.17, 1.0, 4.0, 8.0, 24.0 and 48.0 hours via the carotid artery catheter and processed as stated in the protocol. Following the last collection point, the animals were euthanized.
(§3) Concentrations in plasma that were below LLOQ were replaced with zeros prior to generating Tables and PK analysis. In the event that more than half (>50%) of the data points were below zero, mean concentration will not be shown in the figures or used in PK parameters estimation. The following PK parameters were estimated using plasma concentration-time profile of each animal:

[2] = Pharmacokinetic study after a single intravenous dose in rats (noncompartmental analysis of plasma concentrations); details: for Cmax: test article in plasma (non-released PEG-BNP, or native BNP), equivalent protein mass 0.459 mg/kg IV
Experimental: as §1, §2, §3

[3] = non-released PEG-BNP in plasma, 0.459 mg/kg IV, Sprague Dawley rats
[4] = BNP in plasma (released from conjugate or given as native BNP), 0.459 mg/kg IV, rats

Compound | AUCINF [2, 3] | CL [2, 3] | MRTlast [2, 3] | T½ [2, 3] | Vss [2, 3] | Cmax ([2]; Sprague Dawley rats) | other results
CC[C@H](C)[C@@H]1NC(=O)[C@H](CCCNC(=N)N)NC(=O)[C@H](CC(=O)O)NC(=O)[C@H](CCSC)NC(=O)[C@H](CCCCN)NC(=O)[C@H](CCCNC(=N)N)NC(=O)CNC(=O)[C@H](Cc2ccccc2)NC(=O)[C@@H](NC(=O)CNC(=O)[C@H](CO)NC(=O)CNC(=O)[C@H](CCC(N)=O)NC(=O)[C@@H](NC(=O)[C@H](CCSC)NC(=O)[C@H](CCCCN)NC(=O)[C@@H]2CCCN2C(=O)[C@@H](N)CO)C(C)C)CSSC[C@@H](C(=O)N[C@@H](CCCCN)C(=O)N[C@H](C(=O)N[C@@H](CC(C)C)C(=O)N[C@@H](CCCN=C(N)N)C(=O)N[C@@H](CCCN=C(N)N)C(=O)N[C@@H](Cc2cnc[nH]2)C(=O)O)C(C)C)NC(=O)CNC(=O)[C@H](CC(C)C)NC(=O)CNC(=O)[C@H](CO)NC(=O)[C@H](CO)NC(=O)[C@H](CO)NC(=O)[C@H](CO)NC1=O [BNP, Nesiritide] | – | – | – | – | – | – | Cmax ([1]; 0.459 mg/kg): 0.00 ng/mL; measurable BNP in plasma (in words) ([2]; following parent BNP administration IV, rats): No measurable plasma concentrations; also recorded: No BNP was measurable
ButyrALD-10K-BNP: non-releasable mono-PEG conjugate (N-terminus directed) of BNP-32 with mPEG-Butyr-ALD-10K | 96.6 ng·h/mL | 79.17 mL/min/kg | 0.368 h | 0.272 h | 2.27 L/kg | 355 ng/mL | –
ButyrALD-40K-BNP: non-releasable mono-PEG conjugate (N-terminus directed) of BNP-32 with mPEG2-Butyr-ALD 40 kDa | 41300 ng·h/mL | 0.185 mL/min/kg | 24.0 h | 26.1 h | 0.631 L/kg | 1410 ng/mL | peak plasma concentration compared with ButyrALD-10K-BNP (in words) [1]: higher; clearance compared with ButyrALD-10K-BNP (in words) ([2]; non-releasable PEG constructs, IV, rats): lower; half-life compared with ButyrALD-10K-BNP (in words) ([2]; non-releasable PEG constructs, IV, rats, pooled data): longer
C2-FMOC-PEG2-40K-BNP: releasable mono-PEG conjugate of BNP-32 made with mPEG2-C2-fmoc-NHS-40K; hydrolysis generates unmodified peptide | – | – | – | – | – | – | Peak concentrations of the conjugate in plasma ([1]; male, Sprague-Dawley): 1300 ng/mL; time of peak concentrations of released BNP [1]: 0.3 h; plasma conjugate concentrations remained above ([1]; 24 h): above 100 ng/mL; AUCINF [2, 4]: 162 ng·h/mL; MRTlast [2, 4]: 1.84 h; Tmax [2, 4]: 0.33 h; half-life of the conjugate in plasma ([2]; intact C2-FMOC-PEG2-40K-BNP in plasma, IV, rats): 15.0 h
